We go through 2 molecules from patent publication US20190359687A1 (Bayer, published 2019).

One assay addresses T1, GP5-6 (human, biotin at the N-terminus).
T1 construct: GP5 with alanine at position 6 (S6A), already in the entry
T1 peptide: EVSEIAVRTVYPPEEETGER
Nature of the assay: ELISA, biotin-peptide on streptavidin plate, Fab 1 ug/ml. (ELISA stands for enzyme-linked immunosorbent assay.)

The target in the next assay is T2, GP5-14 (human, biotin at the N-terminus).
T2 construct: GP5 with alanine at position 14 (E14A), already in the entry
T2 peptide: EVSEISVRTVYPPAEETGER
The description is as above.

Another assay concerns the target T3, GP5-13 (human, biotin at the N-terminus).
T3 construct: GP5 with alanine at position 13 (P13A), already in the entry
T3 peptide: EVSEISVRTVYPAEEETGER
The assay is described as above.

A further assay has as its target T4, GP5-2 (human, biotin at the N-terminus).
T4 construct: GP5 with alanine at position 2 (V2A), already in the entry
T4 peptide: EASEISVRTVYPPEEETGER
The assay is described as above.

In another assay the target is T5, GP5-15 (human, biotin at the N-terminus).
T5 construct: GP5 with alanine at position 15 (E15A), already in the entry
T5 peptide: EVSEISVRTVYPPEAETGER
The description is as above.

The next assay addresses T6, GP5-12 (human, biotin at the N-terminus).
T6 construct: GP5 with alanine at position 12 (P12A), already in the entry
T6 peptide: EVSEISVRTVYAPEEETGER
The assay is described as above.

A further assay concerns the target T7, GP5-17 (human, biotin at the N-terminus).
T7 construct: GP5 with alanine at position 17 (T17A), already in the entry
T7 peptide: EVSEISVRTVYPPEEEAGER
The assay is described as above.

The target in another assay is T8, GP5-7 (human, biotin at the N-terminus).
T8 construct: GP5 with alanine at position 7 (V7A), already in the entry
T8 peptide: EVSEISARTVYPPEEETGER
The assay is described as above.

In a further assay the target is T9, GP5-3 (human, biotin at the N-terminus).
T9 construct: GP5 with alanine at position 3 (S3A), already in the entry
T9 peptide: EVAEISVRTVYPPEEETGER
The assay is described as above.

The target of the next assay is T10, GP5-11 (human, biotin at the N-terminus).
T10 construct: GP5 with alanine at position 11 (Y11A), already in the entry
T10 peptide: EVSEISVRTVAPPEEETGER
The assay is described as above.

A further assay addresses T11, GP5-18 (human, biotin at the N-terminus).
T11 construct: GP5 with alanine at position 18 (G18A), already in the entry
T11 peptide: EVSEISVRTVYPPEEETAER
Described as above.

The target in a further assay is T12, GP5-9 (human, biotin at the N-terminus).
T12 construct: GP5 with alanine at position 9 (T9A), already in the entry
T12 peptide: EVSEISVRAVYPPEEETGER
The assay is described as above.

The next assay concerns the target T13, GP5-4 (human, biotin at the N-terminus).
T13 construct: GP5 with alanine at position 4 (E4A), already in the entry
T13 peptide: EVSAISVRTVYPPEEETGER
The assay is described as above.

The next assay addresses T14, GP5-10 (human, biotin at the N-terminus).
T14 construct: GP5 with alanine at position 10 (V10A), already in the entry
T14 peptide: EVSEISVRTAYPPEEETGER
Described as above.

Another assay concerns the target T15, GP5-16 (human, biotin at the N-terminus).
T15 construct: GP5 with alanine at position 16 (E16A), already in the entry
T15 peptide: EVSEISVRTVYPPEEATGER
Described as above.

The target of another assay is T16, GP5-1 (human, biotin at the N-terminus).
T16 construct: GP5 with alanine at position 1 (E1A), already in the entry
T16 peptide: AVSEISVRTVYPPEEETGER
The description is as above.

In another assay the target is T17, GP5-19 (human, biotin at the N-terminus).
T17 construct: GP5 with alanine at position 19 (E19A), already in the entry
T17 peptide: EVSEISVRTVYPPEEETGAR
The assay is described as above.

For a further assay, the target named is T18, GP5-8 (human, biotin at the N-terminus).
T18 construct: GP5 with alanine at position 8 (R8A), already in the entry
T18 peptide: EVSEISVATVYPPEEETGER
Described as above.

For another assay, the target named is T19, GP5-20 (human, biotin at the N-terminus).
T19 construct: GP5 with alanine at position 20 (R20A), already in the entry
T19 peptide: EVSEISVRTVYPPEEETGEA
The description is as above.

A further assay addresses T20, GP5-5 (human, biotin at the N-terminus).
T20 construct: GP5 with alanine at position 5 (I5A), already in the entry
T20 peptide: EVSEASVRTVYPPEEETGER
The assay is described as above.

Assay [1] concerns the target T21, human glycophorin A in the red blood cell membrane (human, UniProt P02724 20-150).
T21 construct: whole, on cells; used for intact RBC, isolated RBC membranes and transfected cells; the assay field tells which; also called GPA; hGPA
T21 sequence (looked up): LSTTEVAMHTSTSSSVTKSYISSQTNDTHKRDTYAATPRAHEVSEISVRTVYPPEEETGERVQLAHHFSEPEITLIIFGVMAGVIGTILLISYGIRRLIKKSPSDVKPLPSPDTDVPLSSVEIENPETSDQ
Put plainly: FACS, IgG titrated on human GPA expressing CHO-QMCF1 cells (17d post txn). In general terms: A flow cytometer gives signals particle by particle.

Assay [2] deals with T22, Cynomolgus monkey glycophorin A on Cynomolgus monkey red blood cells (Cynomolgus monkey).
T22 construct: whole, on cells; also called Cyno RBC; Cyno GPA
Nature of the assay: FACS, Cyno RBC.
Procedure: (§1) Hybridomas were generated from the spleen cells of these mice and these hybriomas were screened first by fluorescence activated cell sorting (FACS) against isolated human and monkey (Cynomolgus monkey and Rhesus monkey) red blood cells (RBC) and then by ELISA against purified human glycophorin A protein (GPA). Isolated RBC were prepared from whole blood from normal human, cynomolgus monkey, and beagle dog, were anticoagulant with sodium heparin (Bioreclamation). 2-3 mL of whole blood was loaded gently on the top of 3 mL Ficoll Plus (Sigma Aldrich) then centrifuged at 500 g for 20 min at room temperature (RT). The RBC pellets were washed 3 times with 10 mL of PBS, and centrifuge 400 g for 10 min at RT. RBC pellets were re-suspended in PBS at the same total volume as the original blood volume to achieve the same RBC cell density as in whole blood and stored at 4° C. Purified human glycophorin A protein was obtained from Sigma Aldrich and coated on ELISA plates at 2 ug/ml. Binding of antibodies to human GPA was detected using appropriate secondary antibodies using methods well known in the art.

Assay [3] concerns the target T23, recombinant human GPA ectodomain (human, UniProt P02724 20-91).
T23 construct: also called recombinant hGPA ECD; recGPA
T23 sequence: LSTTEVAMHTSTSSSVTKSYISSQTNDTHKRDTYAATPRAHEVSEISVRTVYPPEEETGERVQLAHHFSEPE
Put plainly: SPR, IgG. In general terms: In SPR one partner is held on a chip, and binding of the other changes the refractive index at the surface.

In assay [4] the target is T24, purified human glycophorin A protein (Sigma, cat # G5017) (human, UniProt P02724 20-150).
T24 construct: mature; also called Sigma hGPA; Sigma GPA
T24 sequence (looked up): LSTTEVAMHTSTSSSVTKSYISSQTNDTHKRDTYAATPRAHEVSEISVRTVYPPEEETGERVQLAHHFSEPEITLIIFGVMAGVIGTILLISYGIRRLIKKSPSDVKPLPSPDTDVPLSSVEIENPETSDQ
Nature of the assay: ELISA, hGPA.
Procedure: as §1

For assay [5], the target named is T21, human glycophorin A in the red blood …. Nature of the assay: FACS, RBC Hu03.
Procedure: (§2) The binding of the humanized variants to intact red blood cells (RBC) from humans (Hu01 to 03; 3 individuals), Rhesus monkey (Rh01 to 03; 3 individuals) and Cynomolgus monkey (Cy01 to 02; 2 individuals) was measured by fluorescence activated cell sorting (FACS).
The target in assay [6] is T23, recombinant human GPA ectodomain. Nature of the assay: ELISA, purified IgG.
Procedure: (§3) The “Sigma GPA” is a crude preparation of human GPA extracted from human red blood cells and is therefore representative of the highly glycosylated form of the native protein.
(§4) EC 50 values were determined from a dilution curve of the antibody. Sigma GPA is partially purified GPA extracted from human red blood cells and purchased from Sigma Chemical Company (cat # G5017), asialo hGPA is human GPA that was desialylated and ECD is the recombinantly expressed ectodomain which is the extracellular portion of GPA.
For assay [7], the target named is T25, asialo hGPA (desialylated human GPA) (human, UniProt P02724 20-150, desialylated).
T25 construct: mature; also called asialo-GPA
T25 sequence (looked up): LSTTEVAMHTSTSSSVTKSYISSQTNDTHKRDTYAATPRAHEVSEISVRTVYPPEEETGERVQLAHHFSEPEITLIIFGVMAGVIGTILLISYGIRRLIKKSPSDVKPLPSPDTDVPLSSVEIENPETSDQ
Nature of the assay: ELISA, purified IgG.
Procedure: as §3, §4

Assay [8] has as its target T24, purified human glycophorin A protein …. Put plainly: ELISA, purified IgG.
Procedure: as §3, §4
Assay [9] concerns the target T26, Rhesus monkey glycophorin A on Rhesus monkey red blood cells (Rhesus monkey, UniProt A0A1D5Q349 20-150).
T26 construct: whole, on cells; also called Rhesus RBC; monkey GPA
T26 sequence: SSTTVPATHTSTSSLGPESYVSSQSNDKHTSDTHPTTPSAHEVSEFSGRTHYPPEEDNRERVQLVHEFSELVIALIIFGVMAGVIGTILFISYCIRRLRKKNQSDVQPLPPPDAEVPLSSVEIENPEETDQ
Nature of the assay: FACS, RBC Rh01.
Procedure: as §2

Assay [10] addresses T22, Cynomolgus monkey glycophorin A on …. Nature of the assay: FACS, RBC Cy02.
Procedure: as §2
The target of assay [11] is T24, purified human glycophorin A protein …. Nature of the assay: ELISA, IgG.
In another assay the target is T27, dog red blood cells (dog).
T27 construct: also called dog RBC
Put plainly: FACS, dog RBC.

Assay [12] has as its target T26, Rhesus monkey glycophorin A on Rhesus …. Put plainly: FACS, RBC Rh03.
Procedure: as §2
Assay [13] deals with T22, Cynomolgus monkey glycophorin A on …. Nature of the assay: FACS, RBC Cy01.
Procedure: as §2
Assay [14] has as its target T21, human glycophorin A in the red blood …. Nature of the assay: FACS, RBC Hu02.
Procedure: as §2
The target is the same in assay [15]. Put plainly: FACS, hu RBC.
Procedure: as §1
Assay [16] has the same target. Put plainly: FACS, RBC Hu01.
Procedure: as §2
In a further assay the target is T28, GP5 peptide (human, N-terminal biotin).
T28 construct: residues 42 to 61 of the human glycophorin A extracellular domain
T28 peptide: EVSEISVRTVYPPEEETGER
Nature of the assay: peptides bound to plates (data not shown).

The target of assay [17] is T26, Rhesus monkey glycophorin A on Rhesus …. Put plainly: FACS, RBC Rh02.

Procedure for dog red blood cells: as §1

B1: TPP-5906 Fab (Fab, V domains shown)
VH: EVQLVQSGAEVKKPGASVKVSCKASGYTFTTYTIHWVRQAPGQGLEWMGYINPSSGYTRYNPKFKGRVTMTRDKSTSTAYMELRSLRSDDTAVYYCQTGTRDYWGQGTTVTVSS
VL: DIQLTQSPSFLSASVGDRVTITCRASSSVSYIYWFQQKPGKAPKLLIYATSTLQSGVPSRFSGSGSGTEYTLTISSLQPEDFATYYCHQRNSFPYTFGQGTKLEIKR
notes: also called parental humanized and germlined 6C12 Fab
B1: the “binding signal (ELISA)” value in the assay with GP5-6 worked out at 6370; in the assay with GP5-14 it was 9; in the assay with GP5-13, 2000; in the assay with GP5-2, 6170; with GP5-15, 366; with GP5-12, 282. Besides, the “binding signal (ELISA)” value was 6250 with GP5-17; 7180 in the assay with GP5-7; 6160 with GP5-3; -1 in the assay with GP5-11; 6290 in the assay with GP5-18; 7280 in the assay with GP5-9. In addition, the “binding signal (ELISA)” value was found to be 4840 with GP5-4; 337 with GP5-10; 3390 with GP5-16; 5310 with GP5-1; 4580 with GP5-19; 7360 in the assay with GP5-8. In addition, the “binding signal (ELISA)” value with GP5-20 is 6850; in the assay with GP5-5 it was 6780.

B2: 6C12B8/H8 (antibody, V domains shown)
VH: RVQLQQSGAELARPGASVKMSCKASGYTFTTYTIHWVKQKTGQGLEWIGYINPSSDYTRYNPKFKDKATLTTDKSSSTAYMKLNSLASDDSAVYYCQTGTRDYWGQGTTLTVSS
VL: QIVLTQSPPIMSASPGEKVTMTCSAASSVSYIYWFQQKPGTSPKLWIYSTSTLPSGVPTRFSGSGSGTSYSLTISRMEAEDAATYYCHQRNSFPFTFGSGTKLEIR
notes: mouse IgG1/k from hybridoma; also called 6C12 parental; TPP-3422
In general, EC50 (read off the curve) refers to the concentration at which the effect is half-maximal. In general, Kd refers to the free concentration of one partner at which half of the binding sites on the other are occupied at equilibrium, for simple one-to-one binding. In general, koff refers to the first-order rate constant of dissociation. By kon is commonly meant the second-order rate constant of association. The term t½ denotes how long it takes for the measured level to halve. Usually EC50 stands for the midpoint of the concentration-response curve. Take B2: the concentration for a half-maximal effect (EC50 (read off the curve)) in [1] was about 0.06 µg/mL. Also, the FACS signal in [2] is 292 relative flourescence units; in the assay with dog red blood cells it was 1.18 relative flourescence units; in [15] it was 3100 relative flourescence units. For the same molecule, the Kd in assay [3] came out at 2.98 nM. Also, the koff in assay [3] is 0.00212 s⁻¹. The association rate constant (kon) in [3] worked out at 711000 M⁻¹ s⁻¹. In [3], the t½ worked out at 5.4 min. The EC50 is 0.791 nM in assay [4]; 0.59 nM in assay [6]; 0.69 nM in assay [7]; 0.64 nM in assay [8]; 0.326 nM in assay [11]. The fluorescence intensity was 2680 in assay [5]; 3780 in [9]; 2570 in assay [10]; 3180 in [12]; 2570 in assay [13]; 2540 in assay [14]. Also, the fluorescence intensity in [16] was found to be 3520; in assay [17], 3410. For the same molecule, in the assay with GP5 peptide, the binding result was “binds”.
